Experimental findings from article PMC10625650, “The WW domain of IQGAP1 binds directly to the p110α catalytic subunit of PI 3-kinase” (The Biochemical journal, 2023) are described below.

The target of this assay is T1, full-length untagged human p110α (catalytic subunit of PI 3-kinase) (human, UniProt P42336 1-1068, [35S]-methionine label).
T1 construct: human p110α (PIK3CA), full length, untagged; also called native p110α; unaltered wild-type p110α
The assay can be described thus: pull-down; 25 μg GST or GST fusion protein purified from bacteria, bound to glutathione-Sepharose beads; 1 pmol 35S-labelled in vitro translated protein (partially purified by ammonium sulfate precipitation); binding buffer 20 mM Tris–HCl pH 7.1, 125 mM KOAc, 0.5 mM EDTA, 1 mM DTT, 0.1% Tween20, 12.5% glycerol; sedimentation, SDS–PAGE, autoradiography or phosphorimaging; percent binding against input. Particulars: one partner purified.

T1 sequence (P42336 whole entry): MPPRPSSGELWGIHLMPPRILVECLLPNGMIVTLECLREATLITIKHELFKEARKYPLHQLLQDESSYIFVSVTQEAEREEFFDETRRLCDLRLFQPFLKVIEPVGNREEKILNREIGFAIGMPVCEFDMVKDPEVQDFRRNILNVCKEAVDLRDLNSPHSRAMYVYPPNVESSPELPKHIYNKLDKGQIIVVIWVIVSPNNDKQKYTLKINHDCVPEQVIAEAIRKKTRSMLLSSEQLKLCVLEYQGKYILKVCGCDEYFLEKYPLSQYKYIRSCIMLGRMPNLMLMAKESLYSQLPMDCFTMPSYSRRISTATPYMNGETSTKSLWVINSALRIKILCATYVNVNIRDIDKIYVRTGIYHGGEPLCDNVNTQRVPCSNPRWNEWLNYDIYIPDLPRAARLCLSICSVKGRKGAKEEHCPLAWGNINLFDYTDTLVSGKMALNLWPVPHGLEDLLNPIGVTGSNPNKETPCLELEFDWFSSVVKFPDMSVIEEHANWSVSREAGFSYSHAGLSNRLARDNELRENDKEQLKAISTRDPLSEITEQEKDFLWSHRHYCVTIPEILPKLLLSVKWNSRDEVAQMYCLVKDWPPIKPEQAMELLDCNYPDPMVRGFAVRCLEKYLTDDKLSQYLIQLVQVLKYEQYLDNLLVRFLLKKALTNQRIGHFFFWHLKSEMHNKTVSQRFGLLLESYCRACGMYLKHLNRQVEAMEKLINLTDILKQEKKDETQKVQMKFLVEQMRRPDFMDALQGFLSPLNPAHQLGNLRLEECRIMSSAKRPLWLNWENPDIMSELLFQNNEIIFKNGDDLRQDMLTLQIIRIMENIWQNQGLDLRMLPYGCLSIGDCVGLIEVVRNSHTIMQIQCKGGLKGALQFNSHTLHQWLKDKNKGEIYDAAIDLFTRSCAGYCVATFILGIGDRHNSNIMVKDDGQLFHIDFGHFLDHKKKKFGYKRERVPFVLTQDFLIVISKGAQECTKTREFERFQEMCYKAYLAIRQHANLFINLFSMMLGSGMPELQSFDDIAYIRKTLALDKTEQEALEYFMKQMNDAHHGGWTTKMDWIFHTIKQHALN

B1: GST-WW (WW domain of human IQGAP1 fused to GST) (domain or fragment, UniProt P46940 679-719, looked up)
chain: GDNNSKWVKHWVKGGYYYYHNLETQEGGWDEPPNFVQNSMQ
notes: human IQGAP1, residues 679-719 holding the WW domain (the results name the WW domain as residues 684-710); in plasmid pGEXLB; also called GST-WW fusion protein; wild-type GST-WW; source: expressed in bacteria, purified on glutathione-Sepharose; not shown: GST (Schistosoma japonicum), N-terminal, kept
Regarding B1, the Kd (in general, a measure of binding affinity in units of concentration) worked out at 130 µM.
